Literature values in article PMC8227800.

Biological target: Cdh2 (Danio rerio) (UniProt Q90275)

Substance: Cdh2 (from UniProt Q90275)
- Kd: 0.2 µM
